The source of these data is patent publication US20140314775A1 (ADRENOMED, published 2014).

Assay [1] has as its target T1, human Adrenomedullin (hADM 1-52) (human, not fully specified; C-terminal amide (printed as PRSKISPQGY-NH2 for aa 43-52 of ADM, SEQ ID NO: 25; not restated for the peptide used in the assays)).
T1 peptide: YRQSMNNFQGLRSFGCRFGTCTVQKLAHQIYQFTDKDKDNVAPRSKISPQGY
Nature of the assay: cell-based or functional assay.

The target in assay [2] is T1, human Adrenomedullin (hADM 1-52). Nature of the assay: SPR, Biacore 2000; antibody captured via anti-mouse Fc on CM5, Adrenomedullin as analyte. As for the experimental part: Reversible immobilization of the antibodies was performed using an anti-mouse Fc antibody covalently coupled in high density to a CM5 sensor surface according to the manufacturer's instructions (mouse antibody capture kit; GE Healthcare).
(In general: In SPR one partner is held on a chip, and binding of the other changes the refractive index at the surface.)

B1: NT-H (antibody, V domains shown)
VH: QVQLQQSGAELMKPGASVKISCKATGYTFSRYWIEWVKQRPGHGLEWIGEILPGSGSTNYNEKFKGKATITADTSSNTAYMQLSSLTSEDSAVYYCTEGYEYDGFDYWGQGTTLTVSS
VL: DVLLSQTPLSLPVSLGDQATISCRSSQSIVYSNGNTYLEWYLQKPGQSPKLLIYRVSNRFSGVPDRFSGSGSGTDFTLKISRVEAEDLGVYYCFQGSHIPYTFGGGTKLEIK
notes: also called antibody NT-H; NT-H antibody
As to B1, the “IC50 (read off the curve; half of the partial plateau), in the presence of 5.63 nM hADM” value in assay [1] is roughly 2 µg/mL. Moreover, in assay [2], the Kd was found to be 5.9 nM.

The term Kd denotes the free concentration of one partner at which half of the binding sites on the other are occupied at equilibrium, for simple one-to-one binding. Read a high Kd as a looser complex.
